Data published in patent US6767991.
Where two headings read alike, the source gives them in different places. Where no end group is shown, it is not given here. [ ]: non-standard residue; d: D form. Pro(1-NpCH2O) = Pro(4-R13), R13 = 1-NpCH2O; Pro(2-NpCH2O) = Pro(4-R13), R13 = 2-NpCH2O; P1(R14 Et, 1R,2R) = not defined here; P1(R14 Et, 1S,2S) = not defined here; Pro(4-OBn) = Pro(4-R13), R13 = OBn; Pro(O-Bn) = Pro(4-R13), R13 = O-Bn; Pro(OBn) = Pro(4-R13), R13 = OBn; Chg = N[C@H](C(=O)O)C1CCCCC1; Acca = not defined here; Nva = CCC[C@H](N)C(=O)O; Ac3c = NC1(C(=O)O)CC1

Assays:
[1] = target: recombinant NS3 protease with the NS4A peptide cofactor … (molar ratio enzyme:cofactor 1:100) (hepatitis C virus genotype 1b); assay: cell-based or functional assay
[2] = target: recombinant NS3 protease with the NS4A peptide cofactor … (molar ratio enzyme:cofactor 1:100) (hepatitis C virus genotype 1b); assay: cell-based or functional assay; remark: listed apart in the source

B1: Compound 215 (Table 2): Ac-Asp-D-Glu-Chg-Val-Pro(1-NpCH2O)-Acca (peptide)
peptide: Ac-D[dE][Chg]V[Pro(1-NpCH2O)][Acca]
modifications: reading uncertain
In the case of B1, the IC50 [1] is reported as 14 nM.

B2: Compound 218 (Table 2): Ac-Asp-D-Glu-Ile-Val-Pro(O-Bn)-Nva (peptide)
peptide: Ac-D[dE]IV[Pro(4-OBn)][Nva]
Work on B2 yielded an IC50 [1] of 490 nM.

B3: Compound 211 (Table 2): Ac-Asp-D-Glu-Chg-Val-Pro(O-Bn)-Nva (peptide)
peptide: Ac-D[dE][Chg]V[Pro(O-Bn)][Nva]
Work on B3 yielded an IC50 [1] of 120 nM.

B4: Compound 128 (Table 1): Ac-Asp-D-Glu-Ile-Val-Pro-Nva (peptide)
peptide: Ac-D[dE]IVP[Nva]
For B4, the IC50 [1] was 7400 nM.

B5: Compound 257 (Table 2): Ac-Chg-Val-Pro(R13)-Acca, R13 drawn (peptide)
peptide: Ac-[Chg]VP[Ac3c]
modifications: not fully specified (residue 3); printed as Ac-Chg-Val-Pro(R13)-Acca
With B5 the IC50 [2] was 2200 nM.

B6: Compound 227 (Table 2): Ac-Chg-Val-Pro(1-NpCH2O)-Acca (peptide)
peptide: Ac-[Chg]VP[Ac3c]
modifications: not fully specified (residue 3); printed as Ac-Chg-Val-Pro(1-NpCH2O)-Acca
Work on B6 yielded an IC50 [2] of 3000 nM.

B7: Compound 1001 (Table 10): Ac-Asp-D-Glu-Ile-Val-Pro(OBn)-P1(R14 Et; 1S, 2S)-NH-(S)-CHMePh (peptide)
peptide: Ac-D[dE]IV[Pro(OBn)][(1S,2S)‑1‑amino‑2‑ethylcyclopropanecarboxylic acid]-{NH‑(S)‑CHMePh}
In the case of B7, the IC50 [1] is reported as 2000 nM.

B8: Compound 228 (Table 2): Ac-Chg-Val-Pro(O-Bn)-P1, P1 drawn (peptide)
peptide: Ac-[Chg]VPX
modifications: not fully specified (residue 3); printed as Ac-Chg-Val-Pro(O-Bn)-P1
For B8, the IC50 [2] was 35000 nM.

B9: Compound 202 (Table 2): Ac-Asp-D-Val-Ile-Val-Pro(O-Bn)-Nva (peptide)
peptide: Ac-D[dV]IV[Pro(O-Bn)][Nva]
In the case of B9, the IC50 [1] is reported as 930 nM.

B10: Compound 506 (Table 5): Ac-Chg-Chg-Pro(1-NpCH2O)-P1(R14 Et; 1S, 2S) (peptide)
peptide: Ac-[Chg][Chg]P[P1(R14 Et, 1S,2S)]
modifications: not fully specified (residue 3); reading uncertain
B10 showed an IC50 [2] of 4850 nM.

B11: Compound 513 (Table 5): Ac-Chg-Val-Pro(1-NpCH2O)-P1(R14 Et; 1R, 2R) (peptide)
peptide: Ac-[Chg]VP[P1(R14 Et, 1R,2R)]
modifications: not fully specified (residue 3); reading uncertain
In the case of B11, the IC50 [2] is reported as 1660 nM and the fold potency against the corresponding 1S,2S isomer (compound 514) [2] is reported as 25 fold.

B12: Compound 213 (Table 2): Ac-Asp-D-Glu-Ile-Val-Pro(2-NpCH2O)-Nva (peptide)
peptide: Ac-D[dE]IV[Pro(2-NpCH2O)][Nva]
B12 showed an IC50 [1] of 36 nM.

B13: Compound 132 (Table 1): Ac-Asp-D-Glu-Chg-Glu-Glu-Acca (peptide)
peptide: Ac-D[dE][Chg]EE[Acca]
modifications: reading uncertain
With B13 the IC50 [1] was 36000 nM.

B14: Compound 636 (Table 6): P6 Asp, P5 D-Glu, P4 Ile, P3 Val, R13 O-Bn, R14 vinyl (peptide)
peptide: D[dE]IV[Pro(O-Bn)][1‑amino‑2‑vinylcyclopropanecarboxylic acid]
modifications: not fully specified; also: further groups not given here
In the case of B14, the IC50 [1] is reported as 470 nM.

B15: Compound 1002 (Table 10): Ac-Asp-D-Glu-Ile-Val-Pro(OBn)-P1(R14 Et; 1S, 2S)-NH-(R)-CHMePh (peptide)
peptide: Ac-D[dE]IV[Pro(OBn)][(1S,2S)‑1‑amino‑2‑ethylcyclopropanecarboxylic acid]-{NH‑(R)‑CHMePh}
B15 gave an IC50 [1] of 49000 nM.

B16: Compound 517 (Table 5): Ac-Asp-D-Glu-Ile-Val-Pro(OBn)-P1(R14 Et; 1R, 2R) (peptide)
peptide: Ac-D[dE]IV[Pro(OBn)][(1R,2R)‑1‑amino‑2‑ethylcyclopropanecarboxylic acid]
B16 showed an IC50 [1] of 75 nM.

B17: Compound 236 (Table 2): Ac-Gly-thioxo-Ile-Val-Pro(1-NpCH2O)-Nva (peptide)
peptide: Ac-GIVP[Nva]
modifications: not fully specified (residue 4); also: Ile2 thioxo (L-thionoisoleucine), thioamide
With B17 the IC50 [1] was 4000 nM.
